According to patent publication US20120134982A1 (published 2012):
Values belong to the molecule of their own block, whether it stands above or below them.

Assays:
[1] = target: human TNFR1, soluble recombinant protein (human) (UniProt P19438); test: phage ELISA on 1 nM TNFR1 coat, anti-M13-HRP; phage after 100 ug/ml trypsin 1 h RT; phage input 2.26E+10
recombinant human VEGF = target: T1, recombinant human VEGF (human, UniProt P15692-4 27-191, biotinylated where used on streptavidin or neutravidin surfaces); test: RBA assay (column 'Activity (nM)'); taken to be of the Fc fusion; competitor VEGFR2-Fc
T1 construct: also called hVEGF; VEGFA

TNFR1-FC fusion [2] = target: T2, TNFR1-FC fusion (human, UniProt P19438 30-211, limits assumed); test: RBA assay (column 'Activity (nM)'); taken to be of the Fc fusion; competition with TNF-alpha
T2 construct: not shown: Fc part, not described further
T2 sequence (looked up): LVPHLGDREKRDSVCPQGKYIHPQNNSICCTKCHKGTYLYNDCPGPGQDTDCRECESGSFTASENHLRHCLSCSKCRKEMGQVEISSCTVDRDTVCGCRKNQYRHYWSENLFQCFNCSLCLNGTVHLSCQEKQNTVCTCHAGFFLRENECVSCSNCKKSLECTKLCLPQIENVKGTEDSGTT

TNFR1-FC fusion [3] = target: T2, TNFR1-FC fusion; test: TNFR-1 receptor binding assay: inhibition of TNF-alpha binding to TNFR1; unstressed sample (T0)
TNFR1-FC fusion [4] = target: T2, TNFR1-FC fusion; test: TNFR-1 receptor binding assay: inhibition of TNF-alpha binding to TNFR1; after 7 days at 50 °C, concentration assumed from 1 mg/ml
TNFR1-FC fusion [5] = target: T2, TNFR1-FC fusion; test: TNFR-1 receptor binding assay: inhibition of TNF-alpha binding to TNFR1; after 14 days at 50 °C, concentration assumed from 1 mg/ml

T1 sequence (P15692 other isoform, or with tags, fused parts or gaps limits assumed): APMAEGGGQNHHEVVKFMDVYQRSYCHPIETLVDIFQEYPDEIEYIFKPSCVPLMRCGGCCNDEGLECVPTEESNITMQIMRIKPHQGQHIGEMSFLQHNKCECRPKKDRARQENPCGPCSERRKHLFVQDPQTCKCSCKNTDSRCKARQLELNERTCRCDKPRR

phage ELISA signal [1]: 0.337
Molecule: DOM1h-131

EC50 (recombinant human VEGF): 0.913 nM
B1: DMS1546 (DOM15-10 Fc fusion) (Fc fusion)
chain: DIQMTQSPSSLSASVGDRVTITCRASQWIGPELSWYQQKPGKAPKLLIYHTSILQSGVPSRFSGSGSGTDFTLTISSLQPEDFATYYCQQYMFQPRTFGQGTKVEIRR
notes: VK dAb fused to human IgG1 Fc; dimeric Fc fusion format; not shown: short linker and human IgG1 Fc

EC50 (TNFR1-FC fusion [2]): 0.047 nM
B2: DMS1544 (DOM1h-131-206 Fc fusion) (Fc fusion)
chain: EVQLLESGGGLVQPGGSLRLSCAASGFTFAHETMVWVRQAPGKGLEWVSHIPPDGQDPFYADSVKGRFTISRDNSKNTLYLQMNSLRAEDTAVYHCALLPKRGPWFDYWGQGTLVTVSS
notes: dAb fused to human IgG1 Fc; dimeric Fc fusion format; not shown: short linker and human IgG1 Fc

IC50 (read off the curve) (TNFR1-FC fusion [3]): ~0.1 nM
B3: DOM1h-131-511 (other)
VH: EVQLLESGGGLVQPGGSLRLSCAASGFTFAHETMVWVRQAPGKGLEWVSHIPPVGQDPFYADSVKGRFTISRDNSKNTLYLQMNSLRAEDTAVYYCALLPKRGPWFDYWGQGTLVTVSS
notes: Anti-TNFR1 domain antibody (dAb, immunoglobulin single variable domain, VH), tested as soluble monomer; also called GSK1995056A

IC50 (read off the curve) (TNFR1-FC fusion [4]): ~0.1 nM
IC50 (read off the curve) (TNFR1-FC fusion [5]): ~0.1 nM
B4: DOM1h-131-206 (other)
VH: EVQLLESGGGLVQPGGSLRLSCAASGFTFAHETMVWVRQAPGKGLEWVSHIPPDGQDPFYADSVKGRFTISRDNSKNTLYLQMNSLRAEDTAVYHCALLPKRGPWFDYWGQGTLVTVSS
notes: also called GSK1995057A
